# Results from the DeepSol protein solubility set.
# Experiment: soluble on expression in E. coli; label from the status in PepcDB or PDB records
row,Sequence,soluble on expression in E. coli
1,MGSDKIHHHHHHMQRHLVDEFWCINVDSTAWSKVLHRGTRREFKKGEQIVSAGELVTQLRYLESGSVCMKRTTLDGNEKILMHIERSSLFCEVPFFTGDEIHSSFNCHRDAVVYCFSKEVVDDILEMYPCIAKDIIRTLSMKVSVLSNQIASLGLDTLEQRIAKFILLRYNLMNLADADLMTLGTLRMKDVASILGVHRATLYRALKTMEKMRLIKLLNENRLQVLNIEALAALANH,not soluble
2,MDRISGLPDEVLVKILSFVPTKVAVSTSILSKRWEFLWMWLTKLKFGSKRYSESEFKRLQCFLDRNLPLHRAPVIESFRLVLSDSHFKPEDIRMWVVVAVSRYIRELKIYSSHYGEKQNILPSSLYTCKSLVILKLDGGVLLDVPRMVCLPSLKTLELKGVRYFKQGSLQRLLCNCPVLEDLVVNLSHHDNMGKLTVIVPSLQRLSLSTPSSREFVIDTPSLLSFQLVDRNDNSHTFLIENMPKLREAYINVPFADIKSLIGSITSVKRLAISSEVGYGEGFIFNHLEELTLWNKYSSNLLVWFLKNSPNLRELMLVSETDVSFFH,soluble
3,KSVVIGKDALIGWHGGANQSDEMWDQSVPSQYEKQFYRYLTRLRIKEAEFYNKVGVDPNITVYGHTRTNTCQRSTLANGWYYTESDMRHMGIKNLTVQGELLNTLNYNNSEINSCLMPQIFN,not soluble
4,MHYFSIHDQSGRHIGFFILLADDESEARPQSGRFAVKLEGGMENHVLSPFGQTEIPQYWRVVKDRIELFFDEAPVGTLRNEYLTVSGQTFVLNDLTGNM,not soluble
5,MGSDKIHHHHHHMKLLYFKEHLSCINYQINVNTGFVYYNLEKDSVSKIDNSASPCILFLLDGEVSIDSGEYQNVHIEKDKMVLIPQHVDNKIEVIYDAKCLLLFWNKDIRVCDKVYMNSLSSYKERKKEMCVLPIRDPLQAVLNSVVAYLYAKMQCKHMHLIKQQEVLLVLRGYYTKKELFTFFSSILGNTGHFEDFVMNNYRKVKSVKEFAGLYCTSERSFNRKFQNCFKESPYQWMQKKKAELIREKISESDTPFQEIAMDFDFNSQAHFTSYCKRLFGMTPSKLRTESKKVAPDLEY,not soluble
6,AIAVGHKYPVKCLEVDKSKGRLVVSHRRAMAERQMEHLKTGALVEGTVQGVKPYGVFVDVFGTSGLLHISQISHDQVANIQSLFLPGEKVKCMVVSFDKQRGRISLSTKALEPHPGDMLRNKQLVYEKAEEMALSYNQRMDSPVRSKNTTSSSTDDIIAGLDIGSLDDLDPILFGTHTNSSNSNTHSDHLKQDSMNGTIPESDI,soluble
7,MWRSSLMCLPDTSWGAMETTFVLDALEQALWARRPSGTVHHSDKGSQYVSLAYTQRLKEAGLLASTGSTGDSYDNAMAESINGLYKAEVIHRKSWKNRAEVELATLTWVDWYNNRRLLERLGHTPPAEAEKAYYASIGNDDLAA,not soluble
8,MLAYPHLFTPLDLGFTTLKNRILMGSMHTGLEELPDGPQRLAAFYAERAAGGVGLIVTGGIAPNMKGGVYQGASVLNDAAQIPHHQVVTEAVHQAGGKIALQILHAGRYSYQKHPVAPSALQAPINPFVPQALSHEEILQTIADFAHCAQLAKQAGYDGVEIMGSEGYLINQFLTARTNQRDDEWGGDFTHRMRFAVEIVRAVRQATGHDFILIYRLSMLDLVEEGSNWVEIEQLAQAVEQAGATVINTGIGWHEARIPTIATMVPRAGFSWVTRKLMGKVNIPLITTNRINDPAVAEQVLADGCADMVSMARPFLADAAFVQKAAQGRADEINTCIGCNQACLDQIFDGKLTSCLVNPRACRETEMPELPTDAPKRLAVVGAGPAGLAFAVTAARRGHQVTLFDAAAEIGGQFNIAKQIPGKEEFYETLRYFRRQLVLNGVTLQLNTLVQVKQLAEFDEVILACGIQPRLPCINGIDHPKVLTYLDVLRDKKPVGQRVAIIGAGGIGFDTAEYLSQSGDSPRFDSTAFSTEWGIDQDLAHRGGLSPAGAKVPPSPRQIFLLQRKASKVGEGLGKTTGWIHRTSLAMRGVKMLNSVSYEAIDDKGLHIIRAEQACCLPVDTIIICAGQEPRRELHQPLLDMGKTVYLIGGADKAVELDARRAIDQGTRLALAI,not soluble
9,SLNILFDIGHPKDVNVFKNVIWKLQERGHEIKIVARAKENTKRVLEEYGFEYEVCKYYKTMSGKALGIITNDIHLYNIAKKFQPDIFVSPGSPYSAHVSRLLRKPHIAFSDTEIAGLVMKLTFPFTDKIYTSSSFYLDLGPKQIRFNGYYELAYLHSNYFTPNRDVLKKYNLDEGYIILRLSALSSHHDIGAKGFTFSSEEELIDFIRELERYGRVIVSSETKQWKTISDYELKFKPGDLHDLLYYSKMCIGEGATMASEAAILGVPAIYVSNTHRGYLDELETYELAFTIQEREEALKKAKSLLEEDSLVKNSKEKREKLLKEKTDVVEFMVNAIEGSYKL,soluble
